In assay [1] the target is T1, BSA-conjugated human CADM1 peptide (human, also: conjugated to BSA via added C-terminal Cys).
T1 construct: also called human peptide; rhCADM1 peptide
T1 peptide: DSRAGEEGSIRAVDHC(BSA)
Nature of the assay: ELISA, scFv titrated on coated BSA-conjugated human CADM1 peptide, anti-HA-HRP, OD450. Background: An ELISA detects its analyte on a solid surface through an enzyme-linked reagent.

Assay [2] deals with T2, BSA-conjugated mouse CADM1 peptide (mouse, also: conjugated to BSA via added C-terminal Cys).
T2 construct: also called mouse peptide
T2 peptide: DSRAGEEGTIGAVDHC(BSA)
Nature of the assay: ELISA, scFv titrated on coated BSA-conjugated mouse CADM1 peptide, anti-HA-HRP, OD450.

The target of assay [3] is T3, CADM1 peptide expressed on SBC-5 small cell lung cancer cells (CADM1-SBC-5); peptide - transmembrane domain - … (human).
T3 construct: also called CADM1 펩타이드를 발현하는 SBC-5 세포
T3 sequence (Q9BY67 whole entry, looked up): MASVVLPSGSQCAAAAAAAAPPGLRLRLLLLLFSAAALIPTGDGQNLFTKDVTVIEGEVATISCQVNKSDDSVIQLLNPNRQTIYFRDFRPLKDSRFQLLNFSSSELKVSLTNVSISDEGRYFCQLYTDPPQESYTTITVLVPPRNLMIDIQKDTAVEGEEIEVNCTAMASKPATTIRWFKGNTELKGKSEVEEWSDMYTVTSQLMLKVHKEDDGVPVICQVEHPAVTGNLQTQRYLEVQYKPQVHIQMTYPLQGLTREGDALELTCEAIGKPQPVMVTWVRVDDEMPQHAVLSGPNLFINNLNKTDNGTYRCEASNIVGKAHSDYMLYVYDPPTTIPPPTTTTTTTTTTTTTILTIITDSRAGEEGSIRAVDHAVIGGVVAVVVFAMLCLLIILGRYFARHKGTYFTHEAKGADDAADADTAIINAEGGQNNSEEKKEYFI
Put plainly: flow cytometry, 1 ug scFv on 5x10^5 SBC-5 cells expressing the CADM1 peptide, PE anti-HA. For orientation: A flow cytometer gives signals particle by particle.

Assay [4] deals with T4, comparison structure: the same structure without the CADM1 peptide (Myc tag, hinge, transmembrane domain, …).
T4 construct: also called 비교군 구조; CADM1 펩타이드를 포함하지 않는 세포
Nature of the assay: flow cytometry, 1 ug scFv on 5x10^5 cells with the structure without the CADM1 peptide, PE anti-HA.

Where a chain is given by its changes, count along the chain named. Where no end group is shown, it is not given here.

Here are results for 3 molecules from KR20220167207A (dated 2022).

As a reminder, the Kd is the free concentration of one partner at which half of the binding sites on the other are occupied at equilibrium, for simple one-to-one binding. The low end stands for tighter binding, the high end for weaker binding.

B1: 4A8 (scFv, V domains shown)
VH: AVTLDESGGGLQTPGGGLSLVCKASGFTFSSYAMNWVRQAPGKGLEFVAQITSSGRYTYYGTAVKGRATISRDNGQSTVRLQLNNLRAEDSGTYYCAKDAAAGYYDGATAGDIDAWGHGTEVIVSS
VL: LTQPSSVSANLGGTVKITCSGGSGSNHYGWYQQKSPGSAPVTVIYSNNKRPSNIPSRFSGSKFGSTATLTITGVQADDEAVYYCGGYDSSAGYIGPFGAGTTLTVL
notes: Tested as purified scFv with His tag and HA tag; chicken immune library
B1: the Bmax in assay [1] is 4.22; in assay [2] it was 4.43. In addition, the Kd in assay [1] turned out to be 16.4 nM; in assay [2] it was 70.2 nM. Further, the figures for the “결합력 (%)” value in assay [3] and in assay [4] were 10.1% and 0.9%, respectively.

B2: RH6 (scFv, V domains shown)
VH: B1 VH with A24G
VL: VTQPSSVSANPGESVKITCSGGSYSYGWYQQKSPGSAPVTVIYSNNQRPSNIPSRFSGSTSGSTSTLTITGVQADDEAVYFCGTFDSSTNAAFGAGTTLTVL
notes: as for B1
On to B2, for which the Bmax amounted to 4.16 in assay [1] and 2.4 in assay [2]. Besides, the Kd worked out at 5.58 nM in assay [1] and 124 nM in assay [2]. Further, the “결합력 (%)” value in assay [3] is 10%; in assay [4], 0.7%.

B3: RB11 (scFv, V domains shown)
VH: B1 VH with A24G
VL: LTQPSSVSANPGGTVKITCSGGSGSYGWFQQKAPGSAPVTLIYANTNRPSDIPSRFSGSKSGSTATLTITGVQVEDEAVYYCGSTDSSYVSIFGAGTTLTVL
notes: as for B1
For the molecule B3, the figures for the Bmax in assay [1] and in assay [2] were 4.01 and 4, respectively. The figures for the equilibrium dissociation constant (Kd) in assay [1] and in assay [2] were 0.649 nM and 2.72 nM, respectively. Also, the “결합력 (%)” value in assay [3] was found to be 38.4%; in assay [4], 1.2%.
